The values below come from patent US20230227838A1, “ENHANCED CELL SURVIVAL AGAINST BIOTIC AND ABIOTIC STRESSES THROUGH SALICYLICK ACID-INDUCED NPR1 CONDENSATES” (priority 2020, published 2023).

This assay has as its target sim3-GFP (Arabidopsis thaliana) (UniProt P93002). As to the kind of experiment: sim3-GFP IP, LC-MS/MS.

sim3-GFP (Arabidopsis thaliana), sequence (P93002 other isoform, or with tags, fused parts or gaps): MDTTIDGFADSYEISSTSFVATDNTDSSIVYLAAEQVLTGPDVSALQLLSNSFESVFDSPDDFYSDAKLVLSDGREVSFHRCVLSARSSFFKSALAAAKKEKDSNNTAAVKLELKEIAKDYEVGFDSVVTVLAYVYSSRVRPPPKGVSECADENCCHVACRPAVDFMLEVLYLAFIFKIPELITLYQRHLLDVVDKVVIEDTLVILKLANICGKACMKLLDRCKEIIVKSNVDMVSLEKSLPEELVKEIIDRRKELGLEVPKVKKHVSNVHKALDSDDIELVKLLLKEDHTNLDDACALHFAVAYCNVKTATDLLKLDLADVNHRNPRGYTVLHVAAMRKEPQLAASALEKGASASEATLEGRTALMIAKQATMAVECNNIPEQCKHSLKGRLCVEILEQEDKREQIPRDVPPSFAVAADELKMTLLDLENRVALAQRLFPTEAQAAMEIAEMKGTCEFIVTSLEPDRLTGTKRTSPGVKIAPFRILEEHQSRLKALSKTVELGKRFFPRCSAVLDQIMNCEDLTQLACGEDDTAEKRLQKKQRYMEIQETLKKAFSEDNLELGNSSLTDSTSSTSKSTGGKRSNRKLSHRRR

B1: GRF6, G-box regulating factor 6 (protein, UniProt P48349 1-248, looked up)
14-3-3-like protein G-BOX factor 14 lambda: MAATLGRDQYVYMAKLAEQAERYEEMVQFMEQLVTGATPAEELTVEERNLLSVAYKNVIGSLRAAWRIVSSIEQKEESRKNDEHVSLVKDYRSKVESELSSVCSGILKLLDSHLIPSAGASESKVFYLKMKGDYHRYMAEFKSGDERKTAAEDTMLAYKAAQDIAAADMAPTHPIRLGLALNFSVFYYEILNSSDKACNMAKQAFEEAIAELDTLGEESYKDSTLIMQLLRDNLTLWTSDMQEQMDEA
Molecule B1 registered a Normalized Fold Change: SA vs Mock of 2.01 fold.

B2: ELI3-2, elicitor-activated gene 3-2 (protein, UniProt Q02972 1-359, looked up)
Cinnamyl alcohol dehydrogenase 8: MGKVLQKEAFGLAAKDNSGVLSPFSFTRRETGEKDVRFKVLFCGICHSDLHMVKNEWGMSTYPLVPGHEIVGVVTEVGAKVTKFKTGEKVGVGCLVSSCGSCDSCTEGMENYCPKSIQTYGFPYYDNTITYGGYSDHMVCEEGFVIRIPDNLPLDAAAPLLCAGITVYSPMKYHGLDKPGMHIGVVGLGGLGHVGVKFAKAMGTKVTVISTSEKKRDEAINRLGADAFLVSRDPKQIKDAMGTMDGIIDTVSATHSLLPLLGLLKHKGKLVMVGAPEKPLELPVMPLIFERKMVMGSMIGGIKETQEMIDMAGKHNITADIELISADYVNTAMERLEKADVRYRFVIDVANTLKPNPNL
Take B2: the Normalized Fold Change: SA vs Mock was determined as 57 fold.

B3: PDIL2-2, PDI-like 2-2 (protein, UniProt Q9MAU6 27-447, looked up)
Protein disulfide-isomerase like 2-2: LYGSSSPVLQLTPSNFKSKVLNSNGVVLVEFFAPWCGHCQSLTPTWEKVASTLKGIATVAAIDADAHKSVSQDYGVRGFPTIKVFVPGKPPIDYQGARDAKSISQFAIKQIKALLKDRLDGKTSGTKNGGGSSEKKKSEPSASVELNSSNFDELVTESKELWIVEFFAPWCGHCKKLAPEWKKAANNLKGKVKLGHVNCDAEQSIKSRFKVQGFPTILVFGSDKSSPVPYEGARSASAIESFALEQLESNAGPAEVTELTGPDVMEDKCGSAAICFVSFLPDILDSKAEGRNKYLEMLLSVADKFKKDPYGFVWVAAGKQPDLEKRVGVGGYGYPAMVALNAKKGAYAPLKSGFEVKHLKDFVKEAAKGGKGNLPIDGTMEIVKTEAWDGKDGEVVDADEFSLEDLMGNDDEASTESKDDL
Turning to B3, the Normalized Fold Change: SA vs Mock is 2.2 fold.

B4: GPX8, glutathione peroxidase 8 (protein, UniProt Q8LBU2 1-167, looked up)
Probable glutathione peroxidase 8: MATKEPESVYELSIEDAKGNNLALSQYKDKVLLIVNVASKCGMTNSNYTELNELYNRYKDKGLEILAFPCNQFGDEEPGTNDQITDFVCTRFKSEFPIFNKIEVNGENASPLYKFLKKGKWGIFGDDIQWNFAKFLVDKNGQAVQRYYPTTSPLTLEHDIKNLLNIS
B4 returned a Normalized Fold Change: SA vs Mock of 19.6 fold.

B5: PCS1, phytochelatin synthase 1 (PCS1) (protein, UniProt Q9S7Z3 1-485, looked up)
Glutathione gamma-glutamylcysteinyltransferase 1: MAMASLYRRSLPSPPAIDFSSAEGKLIFNEALQKGTMEGFFRLISYFQTQSEPAYCGLASLSVVLNALSIDPGRKWKGPWRWFDESMLDCCEPLEVVKEKGISFGKVVCLAHCSGAKVEAFRTSQSTIDDFRKFVVKCTSSENCHMISTYHRGVFKQTGTGHFSPIGGYNAERDMALILDVARFKYPPHWVPLKLLWEAMDSIDQSTGKRRGFMLISRPHREPGLLYTLSCKDESWIEIAKYLKEDVPRLVSSQHVDSVEKIISVVFKSLPSNFNQFIRWVAEIRITEDSNQNLSAEEKSRLKLKQLVLKEVHETELFKHINKFLSTVGYEDSLTYAAAKACCQGAEILSGSPSKEFCCRETCVKCIKGPDDSEGTVVTGVVVRDGNEQKVDLLVPSTQTECECGPEATYPAGNDVFTALLLALPPQTWSGIKDQALMHEMKQLISMASLPTLLQEEVLHLRRQLQLLKRCQENKEEDDLAAPAY
Turning to B5, the Normalized Fold Change: SA vs Mock came to 3.43 fold.

B6: UBC36, ubiquitin-conjugating enzyme 36 (protein, UniProt Q9FZ48 1-153, looked up)
Ubiquitin-conjugating enzyme E2 36: MANSNLPRRIIKETQRLLSEPAPGISASPSEENMRYFNVMILGPTQSPYEGGVFKLELFLPEEYPMAAPKVRFLTKIYHPNIDKLGRICLDILKDKWSPALQIRTVLLSIQALLSAPNPDDPLSENIAKHWKSNEAEAVETAKEWTRLYASGA
B6 returned a Normalized Fold Change: SA vs Mock of 3.95 fold.

B7: PNG1, peptide-N-glycanase 1 (protein, UniProt Q9FGY9 1-721, looked up)
Peptide-N(4)-(N-acetyl-beta-glucosaminyl)asparagine amidase: MVARKFVVRHEDSSFDVDYNTEDGLEVLRFLIFSLTLVPPEEQKIVAEDDNRLVSDESDLASLSERLRLVSVGEDSVENSDAEMLKSDEELARMLQAEEDAIMFQQFVAARDNGEFEGRIRPYVSQVLMYEDPVRQDAARKTVPKDELEEKALVSLAKEGNFEPSKEERDYAFLLQLLFWFKKSFRWVNEPPCDFCGNKTIGQGMGNPLTSELAYGANRVEIYRCTMCPTTTRFPRYNDPLKLVETKKGRCGEWANCFTLYCRTFGYDSRLIMDFTDHVWTECYSHSLKRWIHLDPCEGVYDKPMLYEKGWNKKLNYVIAISKDGVCDVTKRYTKKWHEVLSRRTLTTESSLQDGLRTLTRERRRSLMFESLSKLELRDRNEQEELERNLHSADNASVSLPGRQSGDREWRIMRSEFGSDENSSVSSSSCPVRKCVDDHVTNIYDSFLPILTQFVEDGLPVARTNEVLKMIKQVLVDLKNAPYKTRKARLTLDSDNSSSFPEQFLPALGDLLLALSLKSERDTNGKSVTISVDGKLTKTAIALPVALDALRELVADLSKYQNLNKDSLSFPLVKQNRVCSGSVLASGEELPSGIATAAFDGIQESKWEEPNGAKGCWIVYKTLYNQMHQLIAYELMSANDAPERDPKDWILEGSNDGGSTWCVLDKQTSQVFEERFQRKSYKITTPGFQANLFRFRFLSVRDVNSTSRLQLGSIDLYRSHQ
Turning to B7, the Normalized Fold Change: SA vs Mock worked out at 3.13 fold.

B8: ALDH7B4, aldehyde dehydrogenase 7B4 (protein, UniProt Q9SYG7 1-508, looked up)
Aldehyde dehydrogenase family 7 member B4: MGSANNEYEFLSEIGLTSHNLGSYVAGKWQANGPLVSTLNPANNQPIAQVVEASLEDYEQGLKACEEAAKIWMQVTAPKRGDIVRQIGDALRSKLDYLGRLLSLEMGKILAEGIGEVQEVIDMCDFAVGLSRQLNGSVIPSERPNHMMLEMWNPLGIVGVITAFNFPCAVLGWNACIALVCGNCVVWKGAPTTPLITIAMTKLVAEVLEKNNLPGAIFTAMCGGAEIGEAIAKDTRIPLVSFTGSSRVGSMVQQTVNARSGKTLLELSGNNAIIVMDDADIQLAARSVLFAAVGTAGQRCTTCRRLLLHESVYDKVLEQLLTSYKQVKIGNPLEKGTLLGPLHTPESKKNFEKGIEVIKSQGGKILTGGKAVEGEGNFVEPTIIEISADAAVVKEELFAPVLYVLKFKSFGEAVAINNSVPQGLSSSIFTRNPENIFRWIGPLGSDCGIVNVNIPTNGAEIGGAFGGEKATGGGREAGSDSWKQYMRRSTCTINYGNELPLAQGINFG
The molecule B8 registered a Normalized Fold Change: SA vs Mock of 2.01 fold.

B9: UGT73B2, UDP-glucosyltransferase 73B2 (protein, UniProt Q94C57 1-483, looked up)
UDP-glucosyl transferase 73B2: MGSDHHHRKLHVMFFPFMAYGHMIPTLDMAKLFSSRGAKSTILTTSLNSKILQKPIDTFKNLNPGLEIDIQIFNFPCVELGLPEGCENVDFFTSNNNDDKNEMIVKFFFSTRFFKDQLEKLLGTTRPDCLIADMFFPWATEAAGKFNVPRLVFHGTGYFSLCAGYCIGVHKPQKRVASSSEPFVIPELPGNIVITEEQIIDGDGESDMGKFMTEVRESEVKSSGVVLNSFYELEHDYADFYKSCVQKRAWHIGPLSVYNRGFEEKAERGKKANIDEAECLKWLDSKKPNSVIYVSFGSVAFFKNEQLFEIAAGLEASGTSFIWVVRKTKDDREEWLPEGFEERVKGKGMIIRGWAPQVLILDHQATGGFVTHCGWNSLLEGVAAGLPMVTWPVGAEQFYNEKLVTQVLRTGVSVGASKHMKVMMGDFISREKVDKAVREVLAGEAAEERRRRAKKLAAMAKAAVEEGGSSFNDLNSFMEEFSS
As to B9, the Normalized Fold Change: SA vs Mock came out at 8.08 fold.

B10: FPA, RNA binding (protein, UniProt Q8LPQ9 1-901, looked up)
Flowering time control protein FPA: MALSMKPFRADDSGFQSNNLWVGSLTPETTESDLTELFGRYGDIDRITVYSSRGFAFIYYRHVEEAVAAKEALQGANLNGSQIKIEYARPAKPCKSLWVGGIGPNVSKDDLEEEFSKFGKIEDFRFLRERKTAFIDYYEMDDALQAKSMNGKPMGGSFLRVDFLRSQAPKKEQWAGSYDNRNGNMNHKPQYPHSYEDFKGDVQPSKVLWIGFPPTATQCNDEQILHNAMILFGEIERVKSYPSRNFALVEFRSAEEARQCKEGLQGRLFNNPRIKIMYSNDELPPEQDDTSFYSGMKRSRTDMFNNDPSFVSSPHSTGIPGSMRPLRGTNERSYNGAEYNDVVGKEPNWRRPSANGTGILPSPTGPGILPSPAQGTRRPMRSNPDSWEGYDPAQLVRESKRTRRDGSVDGFTPMGVDERSFGRGSVAARPIRGPPDSDHIWRGMIAKGGTPVCCARCVPMGKGIETKLPEVVNCSARTDLNMLAKHYAVAIGCEIVFFVPDREEDFASYTEFLRYLSSKDRAGVAKLDDGTTLFLVPPSDFLTDVLQVTRQERLYGVVLKLPPPAVPVTASYRQESQSNPLHYMDQARDSPANASHSLYPPRENYIRGAPEHLTAASKPSVSEPLRIPNNAAPQAGVSLTPELLATLASILPATSQPAAPESHQPMSGPSTVVSTAHQSNGLYNGEAPSQAWKRGPQTVHDASNQSFQQYGNQYTPAGQLPPPPSRYPPASNNPNYTSGMVHGNMQYQSQSVNMPQLSPLPNMPHNNYSMYTQGSSNHPVSQPMVQQYQPEASMPNQNYGPIPSYQQANFHGVTTNQAQNLNPSQFQAAMQPPADKANLEPQNQALRLQPMISGDGQGTTDGEVDKNQRYQSTLQFAANLLLQIQQKQQQQSSGTPAGQGP
The molecule B10 came in with a Normalized Fold Change: SA vs Mock of 4.87 fold.

B11: RH39 (protein, UniProt Q56X76 1-621, looked up)
DEAD-box ATP-dependent RNA helicase 39: MVGASRTILSLSLSSSLFTFSKIPHVFPFLRLHKPRFHHAFRPLYSAAATTSSPTTETNVTDPDQLKHTILLERLRLRHLKESAKPPQQRPSSVVGVEEESSIRKKSKKLVENFQELGLSEEVMGALQELNIEVPTEIQCIGIPAVMERKSVVLGSHTGSGKTLAYLLPIVQLMREDEANLGKKTKPRRPRTVVLCPTRELSEQVYRVAKSISHHARFRSILVSGGSRIRPQEDSLNNAIDMVVGTPGRILQHIEEGNMVYGDIAYLVLDEADTMFDRGFGPEIRKFLAPLNQRALKTNDQGFQTVLVTATMTMAVQKLVDEEFQGIEHLRTSTLHKKIANARHDFIKLSGGEDKLEALLQVLEPSLAKGSKVMVFCNTLNSSRAVDHYLSENQISTVNYHGEVPAEQRVENLKKFKDEEGDCPTLVCTDLAARGLDLDVDHVVMFDFPKNSIDYLHRTGRTARMGAKGKVTSLVSRKDQMLAARIEEAMRNNESLESLTTDNVRRDAARTHITQEKGRSVKQIREVSKQRNSRDKPSSSSPPARSTGGKTPVRKSSSSSFSKPRKASSPPEKSSKPKRKILKTVGSRSIAARGKTGSDRRPGKKLSVVGFRGKSSSARAS
In turn, B11 returned a Normalized Fold Change: SA vs Mock of 46.9 fold.

B12: DMR6, 2-oxoglutarate (2OG) and Fe(II)-dependent oxygenase superfamily protein (protein, UniProt Q9FLV0 1-341, looked up)
Protein DOWNY MILDEW RESISTANCE 6: MAAKLISTGFRHTTLPENYVRPISDRPRLSEVSQLEDFPLIDLSSTDRSFLIQQIHQACARFGFFQVINHGVNKQIIDEMVSVAREFFSMSMEEKMKLYSDDPTKTTRLSTSFNVKKEEVNNWRDYLRLHCYPIHKYVNEWPSNPPSFKEIVSKYSREVREVGFKIEELISESLGLEKDYMKKVLGEQGQHMAVNYYPPCPEPELTYGLPAHTDPNALTILLQDTTVCGLQILIDGQWFAVNPHPDAFVINIGDQLQALSNGVYKSVWHRAVTNTENPRLSVASFLCPADCAVMSPAKPLWEAEDDETKPVYKDFTYAEYYKKFWSRNLDQEHCLENFLNN
B12 returned a Normalized Fold Change: SA vs Mock of 15.6 fold.
